This note sets out measurements from publication PMC7395460, “Structural mechanism of helicase loading onto replication origin DNA by ORC-Cdc6” (Proceedings of the National Academy of Sciences of the …, 2020).

The labels stand for the following.
B2: Orc1 (natural protein, S. cerevisiae)
chain: MAKTLKDLQGWEIITTDEQGNIIDGGQKRLRRRGAKTEHYLKRSSDGIKLGRGDSVVMHNEAAGTYSVYMIQELRLNTLNNVVELWALTYLRWFEVNPLAHYRQFNPDANILNRPLNYYNKLFSETANKNELYLTAELAELQLFNFIRVANVMDGSKWEVLKGNVDPERDFTVRYICEPTGEKFVDINIEDVKAYIKKVEPREAQEYLKDLTLPSKKKEIKRGPQKKDKATQTAQISDAETRATDITDNEDGNEDESSDYESPSDIDVSEDMDSGEISADELEEEEDEEEDEDEEEKEARHTNSPRKRGRKIKLGKDDIDASVQPPPKKRGRKPKDPSKPRQMLLISSCRANNTPVIRKFTKKNVARAKKKYTPFSKRFKSIAAIPDLTSLPEFYGNSSELMASRFENKLKTTQKHQIVETIFSKVKKQLNSSYVKEEILKSANFQDYLPARENEFASIYLSAYSAIESDSATTIYVAGTPGVGKTLTVREVVKELLSSSAQREIPDFLYVEINGLKMVKPTDCYETLWNKVSGERLTWAASMESLEFYFKRVPKNKKKTIVVLLDELDAMVTKSQDIMYNFFNWTTYENAKLIVIAVANTMDLPERQLGNKITSRIGFTRIMFTGYTHEELKNIIDLRLKGLNDSFFYVDTKTGNAILIDAAGNDTTVKQTLPEDVRKVRLRMSADAIEIASRKVASVSGDARRALKVCKRAAEIAEKHYMAKHGYGYDGKTVIEDENEEQIYDDEDKDLIESNKAKDDNDDDDDNDGVQTVHITHVMKALNETLNSHVITFMTRLSFTAKLFIYALLNLMKKNGSQEQELGDIVDEIKLLIEVNGSNKFVMEIAKTLFQQGSDNISEQLRIISWDFVLNQLLDAGILFKQTMKNDRICCVKLNISVEEAKRAMNEDETLRNL
notes: Orc1, subunit of the S. cerevisiae origin recognition complex; Stood in the assay as a subunit of ORC

Common to all, as to test: cryo-EM structure; pre-insertion OCCM, 8.1 Å; same loading reaction (purified ORC, Cdc6, Cdt1, mutant Mcm2-7, ARS1 DNA, ATPγS); models docked as rigid bodies
Details in all cases: both partners purified

The target in the assay “Orc1” is B2.
For a further assay, the target named is T1, Mcm4 (S. cerevisiae, UniProt P30665 1-933).
T1 construct: Mcm4 of S. cerevisiae; Stood in the assay as a subunit of the mutant Mcm2-7
T1 sequence: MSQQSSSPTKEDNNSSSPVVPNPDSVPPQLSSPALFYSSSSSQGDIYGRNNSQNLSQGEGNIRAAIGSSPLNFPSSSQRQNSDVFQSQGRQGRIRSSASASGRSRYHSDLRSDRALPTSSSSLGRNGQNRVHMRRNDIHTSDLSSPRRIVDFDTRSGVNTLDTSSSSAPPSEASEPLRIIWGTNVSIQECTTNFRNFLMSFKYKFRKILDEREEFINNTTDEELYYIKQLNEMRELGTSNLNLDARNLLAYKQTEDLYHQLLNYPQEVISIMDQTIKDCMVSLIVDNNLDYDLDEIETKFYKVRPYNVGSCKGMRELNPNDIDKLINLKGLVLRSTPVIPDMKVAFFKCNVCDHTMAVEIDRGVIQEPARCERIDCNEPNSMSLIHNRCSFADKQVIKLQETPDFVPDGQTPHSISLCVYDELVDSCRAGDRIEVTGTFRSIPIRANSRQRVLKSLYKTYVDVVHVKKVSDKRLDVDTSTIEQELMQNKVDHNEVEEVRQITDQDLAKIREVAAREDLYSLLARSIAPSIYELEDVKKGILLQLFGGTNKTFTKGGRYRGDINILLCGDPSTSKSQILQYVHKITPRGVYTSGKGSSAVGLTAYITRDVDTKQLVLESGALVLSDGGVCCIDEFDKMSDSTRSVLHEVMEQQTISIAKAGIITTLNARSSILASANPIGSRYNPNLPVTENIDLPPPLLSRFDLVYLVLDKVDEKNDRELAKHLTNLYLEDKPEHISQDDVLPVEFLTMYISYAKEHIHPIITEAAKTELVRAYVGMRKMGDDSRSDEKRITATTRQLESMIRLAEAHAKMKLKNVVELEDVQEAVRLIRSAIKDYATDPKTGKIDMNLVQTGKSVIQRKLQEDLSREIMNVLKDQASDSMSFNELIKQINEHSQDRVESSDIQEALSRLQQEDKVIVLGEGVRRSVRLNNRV

In a further assay the target is T2, Mcm3 (S. cerevisiae, UniProt P24279 1-971).
T2 construct: Mcm3 of S. cerevisiae; Stood in the assay as a subunit of the mutant Mcm2-7; in the semi-attached OCCM only its WHD is resolved
T2 sequence (P24279 whole entry): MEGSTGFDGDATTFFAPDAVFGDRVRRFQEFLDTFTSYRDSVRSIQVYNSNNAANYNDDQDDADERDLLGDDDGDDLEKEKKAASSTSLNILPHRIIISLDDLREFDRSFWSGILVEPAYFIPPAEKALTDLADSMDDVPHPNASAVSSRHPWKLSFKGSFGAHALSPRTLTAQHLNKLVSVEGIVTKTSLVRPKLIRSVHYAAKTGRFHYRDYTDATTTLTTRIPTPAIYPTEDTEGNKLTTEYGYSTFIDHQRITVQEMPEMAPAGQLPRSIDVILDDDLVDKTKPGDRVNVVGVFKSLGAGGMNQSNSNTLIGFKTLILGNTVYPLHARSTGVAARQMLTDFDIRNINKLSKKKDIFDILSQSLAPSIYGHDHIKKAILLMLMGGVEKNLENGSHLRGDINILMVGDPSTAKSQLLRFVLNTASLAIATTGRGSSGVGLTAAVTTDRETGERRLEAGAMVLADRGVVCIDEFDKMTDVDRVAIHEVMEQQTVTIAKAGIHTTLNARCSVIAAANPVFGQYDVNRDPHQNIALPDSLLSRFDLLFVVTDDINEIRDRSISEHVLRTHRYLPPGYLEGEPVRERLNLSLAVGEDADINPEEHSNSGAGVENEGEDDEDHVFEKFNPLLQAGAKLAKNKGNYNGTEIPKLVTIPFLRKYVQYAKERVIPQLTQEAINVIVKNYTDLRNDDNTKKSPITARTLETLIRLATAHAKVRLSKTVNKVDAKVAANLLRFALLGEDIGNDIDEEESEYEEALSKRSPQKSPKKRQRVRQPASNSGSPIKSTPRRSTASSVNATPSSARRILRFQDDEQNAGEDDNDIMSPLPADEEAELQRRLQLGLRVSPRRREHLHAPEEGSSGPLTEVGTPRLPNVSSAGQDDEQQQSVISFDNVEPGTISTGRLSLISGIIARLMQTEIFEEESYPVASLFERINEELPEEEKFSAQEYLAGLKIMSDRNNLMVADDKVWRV

B1: Mcm7 (natural protein, S. cerevisiae, UniProt P38132 1-845, looked up)
chain: MSAALPSIQLPVDYNNLFNEITDFLVTFKQDTLSSDATRNENEDENLDAENIEQHLLEKGPKYMAMLQKVANRELNSVIIDLDDILQYQNEKFLQGTQADDLVSAIQQNANHFTELFCRAIDNNMPLPTKEIDYKDDVLDVILNQRRLRNERMLSDRTNEIRSENLMDTTMDPPSSMNDALREVVEDETELFPPNLTRRYFLYFKPLSQNCARRYRKKAISSKPLSVRQIKGDFLGQLITVRGIITRVSDVKPAVEVIAYTCDQCGYEVFQEVNSRTFTPLSECTSEECSQNQTKGQLFMSTRASKFSAFQECKIQELSQQVPVGHIPRSLNIHVNGTLVRSLSPGDIVDVTGIFLPAPYTGFKALKAGLLTETYLEAQFVRQHKKKFASFSLTSDVEERVMELITSGDVYNRLAKSIAPEIYGNLDVKKALLLLLVGGVDKRVGDGMKIRGDINVCLMGDPGVAKSQLLKAICKISPRGVYTTGKGSSGVGLTAAVMKDPVTDEMILEGGALVLADNGICCIDEFDKMDESDRTAIHEVMEQQTISISKAGINTTLNARTSILAAANPLYGRYNPRLSPLDNINLPAALLSRFDILFLMLDIPSRDDDEKLAEHVTYVHMHNKQPDLDFTPVEPSKMREYIAYAKTKRPVMSEAVNDYVVQAYIRLRQDSKREMDSKFSFGQATPRTLLGIIRLSQALAKLRLADMVDIDDVEEALRLVRVSKESLYQETNKSKEDESPTTKIFTIIKKMLQETGKNTLSYENIVKTVRLRGFTMLQLSNCIQEYSYLNVWHLINEGNTLKFVDDGTMDTDQEDSLVSTPKLAPQTTASANVSAQDSDIDLQDA
notes: Mcm7 of S. cerevisiae; Stood in the assay as a subunit of the mutant Mcm2-7; in the semi-attached OCCM only its WHD is resolved
For the molecule B1, the binding result with Orc1 is “binds”.

For the molecule B2, the binding result with Mcm4 is “binds”.

B3: Orc2 (natural protein, S. cerevisiae)
chain: MLNGEDFVEHNDILSSPAKSRNVTPKRVDPHGERQLRRIHSSKKNLLERISLVGNERKNTSPDPALKPKTPSKAPRKRGRPRKIQEELTDRIKKDEKDTISSKKKRKLDKDTSGNVNEESKTSNNKQVMEKTGIKEKREREKIQVATTTYEDNVTPQTDDNFVSNSPEPPEPATPSKKSLTTNHDFTSPLKQIIMNNLKEYKDSTSPGKLTLSRNFTPTPVPKNKKLYQTSETKSASSFLDTFEGYFDQRKIVRTNAKSRHTMSMAPDVTREEFSLVSNFFNENFQKRPRQKLFEIQKKMFPQYWFELTQGFSLLFYGVGSKRNFLEEFAIDYLSPKIAYSQLAYENELQQNKPVNSIPCLILNGYNPSCNYRDVFKEITDLLVPAELTRSETKYWGNHVILQIQKMIDFYKNQPLDIKLILVVHNLDGPSIRKNTFQTMLSFLSVIRQIAIVASTDHIYAPLLWDNMKAQNYNFVFHDISNFEPSTVESTFQDVMKMGKSDTSSGAEGAKYVLQSLTVNSKKMYKLLIETQMQNMGNLSANTGPKRGTQRTGVELKLFNHLCAADFIASNEIALRSMLREFIEHKMANITKNNSGMEIIWVPYTYAELEKLLKTVLNTL
notes: Orc2, subunit of the S. cerevisiae origin recognition complex; Stood in the assay as a subunit of ORC
Turning to B3, in the assay with Mcm3, the binding result is recorded as “binds”.
